Experimental findings from patent US20250295799A1 (Zymeworks, published 2025) are described below.

As a reminder, the Kd is the constant that tells how readily two partners part at equilibrium.

Assay [1] addresses T1, recombinant cynomolgus GPC3 (glypican-3) (cynomolgus monkey, UniProt A0A2K5VK50 24-558).
T1 construct: also called cynoGPC3
In words: SPR; Kd on human GPC3 divided by Kd on cynomolgus GPC3. On the technique in general: SPR reads the build-up and loss of mass on a sensor chip optically.
Description: (§1) CM5 Series S sensor chip, Biacore™ amine coupling kit (NHS, EDC and 1 M ethanolamine), and 10 mM sodium acetate buffers were purchased from Cytiva Life Sciences (Mississauga, ON, Canada). PBS running buffer with 0.05% Tween20 (PBST) was purchased from Teknova Inc. (Hollister, CA). Antigens: recombinant human and cynomolgus GPC3 was purchased from ACROBiosystems (Newark, DE) and SEC purified on a Superdex 200 10/300 GL column (Cytiva) in PBST running buffer at 0.8 mL/min.
(§2) Screening of the antibodies for binding to GPC3 antigen was conducted via anti-Fc capture of antibodies, followed by the injection of five concentrations of GPC3. The anti-Fc surface was prepared on a CM5 Series S sensor chip by standard amine coupling methods as described by the manufacturer (Cytiva Life Sciences, Mississauga, ON, Canada). […] Approximately 150-400 RUs of each antibody (5-20 μg/mL) were captured on the goat anti-human IgG surface by injecting at 10 μL/min for 60s. Using single-cycle kinetics, five concentrations of a two-fold dilution series of human or cynomolgus GPC3 starting at 40 nM, 20 nM, 10 nM, or 5 nM depending on the antibody, with a blank buffer control were injected at 20 μL/min for 180s of contact time, followed by 180 s dissociation phase, resulting in sensorgrams with a buffer blank reference. The anti-Fc surface was regenerated to prepare for the next injection cycle by one pulse of 10 mM glycine/HCl pH 1.5 for 120 s at 40 μL/min. Blank-subtracted sensorgrams were analyzed and fit to the 1:1 Langmuir binding model using Biacore™ T200 Evaluation Software v3.2.

Assay [2] concerns the target T2, recombinant human GPC3 (glypican-3) (human, UniProt P51654 25-559).
T2 construct: also called huGPC3; hGPC3
In words: SPR (Biacore T200), antibody captured by anti-Fc, GPC3 injected.
Description: as §1, §2

For assay [3], the target named is T2, recombinant human GPC3 (glypican-3). In words: SPR (Biacore T200), antibody captured by anti-Fc, GPC3 injected, single-cycle kinetics, 1:1 fit; average.
Description: as §1, §2
For assay [4], the target named is T1, recombinant cynomolgus GPC3 (glypican-3). Described as above.
Description: as §1, §2

B1: v40203, H18L6_LC_G34D mAb (antibody, human IgG1, kappa, V domains shown)
VH: QVQLVQSGAEVKKPGSSVKVSCKASGYTFTDYEMHWVKQAPGHGLEWIGAIDPETGDTAYNQKFKGKATLTADTSTSTAYMELSSLRSEDTAVYYCTRYFSFAYWGQGTLVTVSS
VL: EIVLTQSPATLSLSPGERATISCRSSQSLRHSNDNTYLQWYQQKPGQAPRLLIYKVSNRFSGVPARFSGSGSGTDFTLTISSLEPEDFAVYFCYQSKHVPYTFGGGTKVEIKR
As for B1, the “Kd Fold difference (hu/cyno)” value in assay [1] worked out at 1.2 fold. For the same molecule, the “Avg % binding huGPC3 (RU observed/theoretical)” value in assay [2] turned out to be 44.1%. The Kd in assay [3] was 13.7 nM; in assay [4], 11.5 nM.

B2: v40204, H18L6_LC_G34E mAb (antibody, human IgG1, kappa, V domains shown)
VH: QVQLVQSGAEVKKPGSSVKVSCKASGYTFTDYEMHWVKQAPGHGLEWIGAIDPETGDTAYNQKFKGKATLTADTSTSTAYMELSSLRSEDTAVYYCTRYFSFAYWGQGTLVTVSS
VL: EIVLTQSPATLSLSPGERATISCRSSQSLRHSNENTYLQWYQQKPGQAPRLLIYKVSNRFSGVPARFSGSGSGTDFTLTISSLEPEDFAVYFCYQSKHVPYTFGGGTKVEIKR
notes: no number given for this variant
On to B2, for which the “Kd Fold difference (hu/cyno)” value in assay [1] is 1.19 fold. Also, the “Avg % binding huGPC3 (RU observed/theoretical)” value in assay [2] was 43%. The figures for the Kd in assay [3] and in assay [4] were 14.9 nM and 12.5 nM, respectively.

B3: v40207, H18L6_LC_G34K mAb (antibody, human IgG1, kappa, V domains shown)
VH: QVQLVQSGAEVKKPGSSVKVSCKASGYTFTDYEMHWVKQAPGHGLEWIGAIDPETGDTAYNQKFKGKATLTADTSTSTAYMELSSLRSEDTAVYYCTRYFSFAYWGQGTLVTVSS
VL: EIVLTQSPATLSLSPGERATISCRSSQSLRHSNKNTYLQWYQQKPGQAPRLLIYKVSNRFSGVPARFSGSGSGTDFTLTISSLEPEDFAVYFCYQSKHVPYTFGGGTKVEIKR
Take B3: the “Kd Fold difference (hu/cyno)” value in assay [1] was 1.58 fold. Further, in assay [2], the “Avg % binding huGPC3 (RU observed/theoretical)” value was 42.2%. The Kd came to 11.5 nM in assay [3] and 7.29 nM in assay [4].

B4: v40205, H18L6_LC_G34H mAb (antibody, human IgG1, kappa, V domains shown)
VH: QVQLVQSGAEVKKPGSSVKVSCKASGYTFTDYEMHWVKQAPGHGLEWIGAIDPETGDTAYNQKFKGKATLTADTSTSTAYMELSSLRSEDTAVYYCTRYFSFAYWGQGTLVTVSS
VL: EIVLTQSPATLSLSPGERATISCRSSQSLRHSNHNTYLQWYQQKPGQAPRLLIYKVSNRFSGVPARFSGSGSGTDFTLTISSLEPEDFAVYFCYQSKHVPYTFGGGTKVEIKR
notes: as for B2
B4: the “Kd Fold difference (hu/cyno)” value in assay [1] was found to be 1.19 fold. Besides, the “Avg % binding huGPC3 (RU observed/theoretical)” value in assay [2] was 43.5%. Besides, the Kd in assay [3] was determined as 10.4 nM; in assay [4] it was 8.79 nM.

B5: v40206, H18L6_LC_G34R mAb (antibody, human IgG1, kappa, V domains shown)
VH: QVQLVQSGAEVKKPGSSVKVSCKASGYTFTDYEMHWVKQAPGHGLEWIGAIDPETGDTAYNQKFKGKATLTADTSTSTAYMELSSLRSEDTAVYYCTRYFSFAYWGQGTLVTVSS
VL: EIVLTQSPATLSLSPGERATISCRSSQSLRHSNRNTYLQWYQQKPGQAPRLLIYKVSNRFSGVPARFSGSGSGTDFTLTISSLEPEDFAVYFCYQSKHVPYTFGGGTKVEIKR
On to B5, for which the “Kd Fold difference (hu/cyno)” value in assay [1] is 1.55 fold. For the same molecule, in assay [2], the “Avg % binding huGPC3 (RU observed/theoretical)” value came to 42%. In addition, the Kd in assay [3] worked out at 11.9 nM; in assay [4], 7.67 nM.

B6: v38592, M3-H18L6 (WT) mAb (antibody, human IgG1, kappa)
heavy: not shown
light: EIVLTQSPATLSLSPGERATISCRSSQSLRHSNGNTYLQWYQQKPGQAPRLLIYKVSNRFSGVPARFSGSGSGTDFTLTISSLEPEDFAVYFCYQSKHVPYTFGGGTKVEIKRTVAAPSVFIFPPSDEQLKSGTASVVCLLNNFYPREAKVQWKVDNALQSGNSQESVTEQDSKDSTYSLSSTLTLSKADYEKHKVYACEVTHQGLSSPVTKSFNRGEC
notes: Same as v37574 but the heavy chain cDNA encodes a C-terminal lysine; also called wild-type M3-H18L6
Turning to B6, the “Avg % binding huGPC3 (RU observed/theoretical)” value in assay [2] was 51.9%. The Kd came out at 7.14 nM in assay [3] and 4.54 nM in assay [4].
